Measured values reported in patent US20080241130A1.

Target: mouse IL-17F/IL-17A heterodimer (mouse)
Assay: cell-based or functional assay

Sequence of mouse IL-17F/IL-17A heterodimer (mouse) (Q62386 26-158, chain 1 of 2): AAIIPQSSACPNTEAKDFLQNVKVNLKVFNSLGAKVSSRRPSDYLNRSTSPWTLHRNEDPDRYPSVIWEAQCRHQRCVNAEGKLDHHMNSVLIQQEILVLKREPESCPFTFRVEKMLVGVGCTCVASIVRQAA
Sequence of mouse IL-17F/IL-17A heterodimer (mouse) (Q7TNI7 29-161, chain 2 of 2, further chain): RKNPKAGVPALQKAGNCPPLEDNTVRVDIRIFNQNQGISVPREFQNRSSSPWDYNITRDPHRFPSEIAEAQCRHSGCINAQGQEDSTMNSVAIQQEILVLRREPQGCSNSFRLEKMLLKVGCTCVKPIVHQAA

How did the decrease in CXCL1 production by MLE-12 cells induced by 200 ng/ml mIL-17F/IL-17A with 80 µg/ml antibody turn out when “anti-mouse IL-17A antibody 50104 (R&D Systems)” was run?
The decrease in CXCL1 production by MLE-12 cells induced by 200 ng/ml mIL-17F/IL-17A with 80 µg/ml antibody was 85%.
